# Patent US20040018971A1 (published 2004)
# B1: HER2/neu peptide, position 167, 9 amino acids (peptide)
# peptide: ILWKDIFHK
# notes: Synthetic peptide; also called Her2/neu.167
# B2: HER2/neu peptide, position 42, 9 amino acids (peptide)
# peptide: HLDMLRHLY
# notes: Synthetic peptide; also called Her2/neu.42
# B3: HER2/neu peptide, position 478, 10 amino acids (peptide)
# peptide: HTVPWDQLFR
# notes: Synthetic peptide; also called Her2/neu.478
# B4: HER2/neu peptide, position 402, 9 amino acids (peptide)
# peptide: TLEEITGYL
# notes: Synthetic peptide; also called HER2/neu 402-410
# B5: HER2/neu peptide, position 725, 10 amino acids (peptide)
# peptide: VLGSGAFGTV
# notes: Synthetic peptide; also called HER2/neu 725-734
# B6: HER2/neu peptide, position 1172, 10 amino acids (peptide)
# peptide: TLSPGKNGVV
# notes: Synthetic peptide; also called HER2/neu 1172-1181
# B7: HER2/neu peptide, position 666, 9 amino acids (peptide)
# peptide: VLGVVFGIL
# notes: Synthetic peptide; also called HER2/neu 666-674
# B8: HER2/neu peptide, position 452, 10 amino acids (peptide)
# peptide: WLGLRSLREL
# notes: Synthetic peptide; also called HER2/neu 452-461
# B9: HER2/neu peptide, position 1196, 9 amino acids (peptide)
# peptide: YLTPQGGAA
# notes: Synthetic peptide; also called HER2/neu 1196-1204
# B10: HER2/neu peptide, position 665, 10 amino acids (peptide)
# peptide: VVLGVVFGIL
# notes: Synthetic peptide; also called HER2/neu 665-674
# B11: Herw/neu414.Y2F9 (peptide)
# peptide: AYPDSLPDF
# notes: HER2/neu analog peptide; label printed with a misprint (Herw/neu414)
# B12: Her2/neu.8 (peptide)
# peptide: RWGLLLAL
# notes: HER2/neu peptide, 8-mer; also called RWGLLLAL
# B13: HER2/neu peptide, position 674, 10 amino acids (peptide)
# peptide: LIKRRQQKIR
# notes: Synthetic peptide; also called Her2/neu.674 (10-mer)
# B14: HER2/neu peptide, position 726, 10 amino acids (peptide)
# peptide: LGSGAFGTVY
# notes: Synthetic peptide; also called Her2/neu.726 (10-mer)
# B15: HER2/neu peptide, position 181, 10 amino acids (peptide)
# peptide: LTLIDTNRSR
# notes: Synthetic peptide; also called Her2/neu.181 (10-mer)
# B16: HER2/neu peptide, position 960, 9 amino acids (peptide)
# peptide: MIDSECRPR
# notes: Synthetic peptide; also called Her2/neu.960 (9-mer)
# B17: HER2/neu peptide, position 360, 9 amino acids (peptide)
# peptide: NIQEFAGCK
# notes: Synthetic peptide; also called Her2/neu.360 (9-mer)
# B18: HER2/neu peptide, position 745, 9 amino acids (peptide)
# peptide: NVKIPVAIK
# notes: Synthetic peptide; also called Her2/neu.745 (9-mer)
# B19: HER2/neu peptide, position 1014, 10 amino acids (peptide)
# peptide: MGDLVDAEEY
# notes: Synthetic peptide; also called Her2/neu.1014 (10-mer)
# B20: HER2/neu peptide, position 154, 10 amino acids (peptide)
# peptide: LIQRNPQLCY
# notes: Synthetic peptide; also called Her2/neu.154 (10-mer)
# B21: HER2/neu peptide, position 841, 9 amino acids (peptide)
# peptide: LVHRDLAAR
# notes: Synthetic peptide; also called Her2/neu.841 (9-mer)
# B22: HER2/neu peptide, position 915, 9 amino acids (peptide)
# peptide: LMTFGAKPY
# notes: Synthetic peptide; also called Her2/neu.915 (9-mer)
# B23: HER2/neu peptide, position 360, 10 amino acids (peptide)
# peptide: NIQEFAGCKK
# notes: Synthetic peptide; also called Her2/neu.360 (10-mer)
# Biological target: T1, HLA-A*0101 (purified HLA class I molecule) (human)
# T1 construct: also called HLA-A1
# Experiment: competition with 125I-labelled standard peptide on purified HLA-A*0101, gel filtration
row,Binder,relative binding ratio (IC50 of standard peptide / IC50 of test peptide)
1,"CSKPCARVCY [HER2/neu peptide, position 334, 10 amino acids]",0.0016 ratio
2,"ETLEEITGYLY (also called Her2/neu.401) [HER2/neu peptide, position 401, 11 amino acids]",0.44 ratio
3,"RLLDIDETEY [HER2/neu peptide, position 868, 10 amino acids]",1.3 ratio
4,"VVQGNLELTY [HER2/neu peptide, position 55, 10 amino acids]",0.018 ratio
5,"ELMTFGAKPY [HER2/neu peptide, position 914, 10 amino acids]",0.0082 ratio
6,"DMGDLVDAEEY [HER2/neu peptide, position 1013, 11 amino acids]",0.0027 ratio
7,"RVLQGLPREY [HER2/neu peptide, position 545, 10 amino acids]",0.0015 ratio
8,"PTHDPSPLQRY (H is used here) [HER2/neu peptide, position 1102, 11 amino acids]",0.016 ratio
9,"PSGVKPDLSY [HER2/neu peptide, position 601, 10 amino acids]",0.001 ratio
10,"PLTCSPQPEY [HER2/neu peptide, position 1130, 10 amino acids]",0.0072 ratio
11,"ETHLDMLRHLY (also called Her2/neu.40) [HER2/neu peptide, position 40, 11 amino acids]",0.28 ratio
12,"YVMAGVGSPY [HER2/neu peptide, position 772, 10 amino acids]",1.1 ratio

# Biological target: T2, HLA-A*0301 (human)
# T2 construct: also called HLA-A3
# Experiment: competitive inhibition of 125I-labelled standard peptide binding to purified HLA-A*0301, gel filtration; standard 941.12 [..] (11 nM)
row,Binder,relative binding ratio (IC50 of standard peptide / IC50 of test peptide)
1,"KVLRENTSPK (Synthetic peptide) [HER2/neu peptide, position 753, 10 amino acids]",0.38 ratio
2,"ILKETELRK (Synthetic peptide) [HER2/neu peptide, position 714, 9 amino acids]",0.019 ratio
3,"KIRKYTMR (Synthetic peptide) [HER2/neu peptide, position 681, 8 amino acids]",0.001 ratio
4,"LALTLIDTNR (Synthetic peptide) [HER2/neu peptide, position 179, 10 amino acids]",-0.0002 ratio
5,"HSCVDLDDK (Synthetic peptide) [HER2/neu peptide, position 632, 9 amino acids]",-0.0002 ratio
6,B1,0.28 ratio
7,B2,0.037 ratio
8,B3,0.0035 ratio
9,"KIPVAIKVLR (Synthetic peptide) [HER2/neu peptide, position 747, 10 amino acids]",0.0009 ratio
10,"ILIKRRQQK (T0001 prints T at residue 673 (FGTLIK)) [HER2/neu peptide, position 673, 9 amino acids]",0.38 ratio
11,"LCYQDTILWK (Synthetic peptide) [HER2/neu peptide, position 161, 10 amino acids]",0.0081 ratio
12,"LACHQLCAR (Synthetic peptide) [HER2/neu peptide, position 509, 9 amino acids]",-0.0002 ratio

# Biological target: T3, HLA-A*0201 (human)
# T3 construct: also called HLA-A2.1
# Experiment: inhibition of 125I-labelled probe peptide binding to purified HLA, gel filtration
row,Binder,relative binding ratio
1,B4,0.0018 ratio (IC50 of standard peptide / IC50 of test peptide)
2,B5,0.0007 ratio (IC50 of standard peptide / IC50 of test peptide)
3,B6,0.0001 ratio (IC50 of standard peptide / IC50 of test peptide)
4,"VVVLGVVFGI (Synthetic peptide) [HER2/neu peptide, position 664, 10 amino acids]",0.0032 ratio (IC50 of standard peptide / IC50 of test peptide)
5,"VLQGLPREYV (Synthetic peptide) [HER2/neu peptide, position 546, 10 amino acids]",0.0009 ratio (IC50 of standard peptide / IC50 of test peptide)
6,"YLSTDVGSCT (Synthetic peptide) [HER2/neu peptide, position 303, 10 amino acids]",0.0002 ratio (IC50 of standard peptide / IC50 of test peptide)
7,"YISAWPDSL (Synthetic peptide) [HER2/neu peptide, position 411, 9 amino acids]",0.0003 ratio (IC50 of standard peptide / IC50 of test peptide)
8,B7,0.0005 ratio (IC50 of standard peptide / IC50 of test peptide)
9,"VVGILLVVV (Synthetic peptide) [HER2/neu peptide, position 658, 9 amino acids]",0.0005 ratio (IC50 of standard peptide / IC50 of test peptide)
10,B8,0.0001 ratio (IC50 of standard peptide / IC50 of test peptide)
11,B9,0.0001 ratio (IC50 of standard peptide / IC50 of test peptide)
12,B10,0.0027 ratio (IC50 of standard peptide / IC50 of test peptide)
13,"VVGILLVVVL (Synthetic peptide) [HER2/neu peptide, position 658, 10 amino acids]",0.0009 ratio (IC50 of standard peptide / IC50 of test peptide)

# Biological target: HLA-A*1101 (human)
# Experiment: competition with 125I-labelled probe peptide for purified HLA-A*1101, gel filtration; ratio to standard peptide 940.06 [..] (6.0 nM)
row,Binder,relative binding ratio (IC50 of standard peptide / IC50 of test peptide)
1,"VTAEDGTQR (also called Her2/neu.322) [HER2/neu peptide, position 322, 9 amino acids]",0.014 ratio
2,"VSEFSRMAR (also called Her2/neu.973) [HER2/neu peptide, position 973, 9 amino acids]",0.0021 ratio

# Biological target: HLA-A*2402 (human)
# Experiment: inhibition of 125I-labeled probe peptide binding to purified HLA-A*2402, gel filtration
row,Binder,IC50
1,SYMPIWKF (HER2/neu peptide) [Her2/neu.609],38 nM
2,RYTHQSDVF (HER2/neu analog peptide) [Her2/neu.898.Y2F9],60 nM
3,SYGVTVWEL (HER2/neu peptide) [Her2/neu.907],100 nM
4,"TYLPTNASL (HER2/neu peptide, 9-mer) [Her2/neu.63]",316 nM
5,TYLPTNASF (HER2/neu analog peptide) [Her2/neu.63.F9],44 nM
6,CYGLGMEHF (HER2/neu analog peptide) [Her2/neu.342.F9],164 nM
7,B11,24 nM
8,B12,480 nM
9,LYISAWPDSL (HER2/neu peptide) [Her2/neu.410],143 nM
10,LYISAWPDSF (HER2/neu analog peptide) [Her2/neu.410.F10],10 nM
11,AYSLTLQGL (HER2/neu peptide) [Her2/neu.440],92 nM
12,AYSLTLQGF (HER2/neu analog peptide) [Her2/neu.440.F9],52 nM

# Biological target: T4, HLA-A*0301 (human)
# T4 construct: also called HLA-A3
# Experiment: inhibition of 125I-labelled probe peptide binding to purified HLA-A*0301, gel filtration; ratio to standard peptide 941.12 [..] (11 nM)
row,Binder,relative binding ratio (IC50 of standard peptide / IC50 of test peptide)
1,"LLNWCMQIAK (Synthetic peptide) [HER2/neu peptide, position 822, 10 amino acids]",0.14
2,B13,0.0002
3,B14,0.0003
4,B15,0.0002
5,B16,0.0017
6,B17,0.0002
7,B18,0.0058
8,B19,0.0002
9,B20,0.0012
10,"MALESILRRR (Synthetic peptide) [HER2/neu peptide, position 889, 10 amino acids]",0.0011
11,B21,0.004
12,B22,0.0002
13,B23,0.0003
